In paper PMC6892545:

Target: Ulp1^403-621-C580S, on CNBr-activated resin (S. cerevisiae) (UniProt Q02724)
Assay: pull-down; Ulp1^403-621-C580S on CNBr-activated resin incubated with yeast whole cell extract, 2 h at 4 °C, PBSN buffer; anti-Smt3 Western blot

UniProt Q02724, sequence (Q02724 403-621 C580S): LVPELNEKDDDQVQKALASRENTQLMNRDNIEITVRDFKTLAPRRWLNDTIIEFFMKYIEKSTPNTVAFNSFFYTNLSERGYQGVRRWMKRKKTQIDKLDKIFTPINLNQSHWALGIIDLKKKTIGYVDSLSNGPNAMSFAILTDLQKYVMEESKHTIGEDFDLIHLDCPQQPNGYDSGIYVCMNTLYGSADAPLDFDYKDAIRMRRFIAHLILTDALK

## Smt3 (yeast SUMO), as endogenous SUMO conjugates in yeast cell extract (from UniProt Q12306 1-101) (natural protein)
  percent of SUMO conjugates recovered on the resin: 50%
